# Test results taken from paper PMC4496674, “Tackling Critical Catalytic Residues in Helicobacter pylori L-Asparaginase” (Biomolecules, 2015).
# B1: HpASNase (Helicobacter pylori 26695) (protein)
# chain: MAQNLPTIALLATGGTIAGSGASASLGSYKSGELGIKELLKAIPSLNRLARIQGEQISNIGSQDMNEEVWFKLAKRAQELLDDSRIQGVVITHGTDTLEESAYFLNLVLRSTKPVVLVGAMRNAASLSADGALNLYNAVSVALNEKSANKGVLVVMDDNIFSAREVIKTHTTHTSTFKALNSGAIGSVYYGKTRYYMQPLRKHTTESEFSLSQLKTPLPKVDIIYTHAGMTPDLFQASLNSHAKGVVIAGVGNGNVSAGFLKAMQEASQMGVVIVRSSRVNSGEITSGEIDDKAFITSDNLNPQKARVLLQLALTKTNNKEKIQEMFEEY
# Experiments:
# purified protein [1] = substrate: NC(=O)C[C@H](N)C(=O)O; test: purified protein; conditions: 50 mM HEPES pH 7.5, 37 °C, hyperbolic
# purified protein [2] = substrate: NC(=O)CC[C@H](N)C(=O)O; test: purified protein; conditions: 50 mM HEPES pH 7.5, 37 °C, sigmoidal, cooperative
protein,measurement,setting,value
B1,K0.5,purified protein [1],0.29 ± 0.03 mM
same,kcat,purified protein [1],19.3 ± 0.56 s⁻¹
same,kcat/Km,purified protein [1],66400 M⁻¹ s⁻¹
same,K0.5,purified protein [2],46.4 ± 4.02 mM
same,kcat,purified protein [2],22.1 ± 1.39 s⁻¹
same,kcat/Km,purified protein [2],470 ± 100 M⁻¹ s⁻¹
